In US20190359666A1 (ACADEMIA SINICA, published 2019):

B1: VEGF-B (ligand, UniProt P49765-2 22-188, looked up)
chain: PVSQPDAPGHQRKVVSWIDVYTRATCQPREVVVPLTVELMGTVAKQLVPSCVTVQRCGGCCPDDGLECVPTGQHQVRMQILMIRYPSSQLGEMSLEEHSQCECRPKKKDSAVKPDSPRPLCPRCTQHHQRPDPRTCRCRCRRRSFLRCQGRGLELNPDTCRCRKLRR
B2: IGFBP3-Fc-2 (Fc fusion)
chain: GASSAGLGPVVRCEPCDARALAQCAPPPAVCAELVREPGCGCCLTCALSEGQPCGIYTERCGSGLRCQPSPDEARPLQALLDGRGLCVNASAVSRPAPPAPGNASESEEDRSAGSVESPSVSSTHRVSDPKFHPKGHAKDSQRYKVDYESQSTDTQNFSSESKRETEYGPCRREMEDTLNHLKFLNVLSPRGVHIPNCDKKGFYKKKQCRPSKGRKRGFCWCVDKYGQPLPGYTTKGKEDVHCYSMQSKVECPPCPAPPVAGPSVFLFPPKPKDQLMISRTPEVTCVVVDVSHEDPEVKFNWYVDGVEVHNAKTKPREEQYNSTYRVVSVLTVLHQDWLNGKEYKCKVSNKGLPSSIEKTISKAKGQPREPQVYTLPPSREEMTKNQVSLTCLVKGFYPSDIAVEWESNGQPENNYKTTPPVLDSDGSFFLYSKLTVDKSRWQQGNVFSCSVMHEGLHNHYTQKSLSLSPGK
notes: IGFBP3 with IGFBP3 linker deletion 2, fused to Fc; dimeric; also called 3(del2)3; 3(del2)3Fc
B3: Rantes (ligand, UniProt P13501 24-91, looked up)
chain: SPYSSDTTPCCFAYIARPLPRAHIKEYFYTSGKCSNPAVVFVTRKNRQVCANPEKKWVREYINSLEMS
notes: The excerpts show no construct or source
B4: 4382 (other)
chain: GASSAVNASAVSRLRAYLLPAPPAPGNASESEEDRSAGSVESPSVSSTHRVSDPKFHPLHSKIIIIKKGHAKDSQRYKVDYESQSTDTQNFSSESKREVECPPCPAPPVAGPSVFLFPPKPKDQLMISRTPEVTCVVVDVSHEDPEVKFNWYVDGVEVHNAKTKPREEQYNSTYRVVSVLTVLHQDWLNGKEYKCKVSNKGLPSSIEKTISKAKGQPREPQVYTLPPSREEMTKNQVSLTCLVKGFYPSDIAVEWESNGQPENNYKTTPPVLDSDGSFFLYSKLTVDKSRWQQGNVFSCSVMHEGLHNHYTQKSLSLSPGK
notes: Fragment of BP3; also called ligand 4382; linker region alone
B5: 4142 (other)
chain: GASSAGLGPVVRCEPCDARALAQCAPPPAVCAELVREPGCGCCLTCALSEGQPCGIYTERCGSGLRCQPSPDEARPLQALLDGRGLCVNASAVSVECPPCPAPPVAGPSVFLFPPKPKDQLMISRTPEVTCVVVDVSHEDPEVKFNWYVDGVEVHNAKTKPREEQYNSTYRVVSVLTVLHQDWLNGKEYKCKVSNKGLPSSIEKTISKAKGQPREPQVYTLPPSREEMTKNQVSLTCLVKGFYPSDIAVEWESNGQPENNYKTTPPVLDSDGSFFLYSKLTVDKSRWQQGNVFSCSVMHEGLHNHYTQKSLSLSPGK
notes: Fragment of BP3; also called ligand 4142; N-terminus only
B6: 4141 (other)
chain: GASSAGLGPVVRCEPCDARALAQCAPPPAVCAELVREPGCGCCLTCALSEGQPCGIYTERCGSGLRCQPSPDEARPLQALLDGRGLCVNASAVSKGHAKDSQRYKVDYESQSTDTQNFSSESKRETEYVECPPCPAPPVAGPSVFLFPPKPKDQLMISRTPEVTCVVVDVSHEDPEVKFNWYVDGVEVHNAKTKPREEQYNSTYRVVSVLTVLHQDWLNGKEYKCKVSNKGLPSSIEKTISKAKGQPREPQVYTLPPSREEMTKNQVSLTCLVKGFYPSDIAVEWESNGQPENNYKTTPPVLDSDGSFFLYSKLTVDKSRWQQGNVFSCSVMHEGLHNHYTQKSLSLSPGK
notes: Fragment of BP3; also called N-terminus plus partial linker
B7: IGFBP3-Fc-3 (Fc fusion)
chain: GASSAGLGPVVRCEPCDARALAQCAPPPAVCAELVREPGCGCCLTCALSEGQPCGIYTERCGSGLRCQPSPDEARPLQALLDGRGLCVNASAVSRPAPPAPGNASESEEDRSAGSVESPSVSSTHRVSDPKFHPKGHAKVDYESQSTDTQNFSSESKRETEYGPCRREMEDTLNHLKFLNVLSPRGVHIPNCDKKGFYKKKQCRPSKGRKRGFCWCVDKYGQPLPGYTTKGKEDVHCYSMQSKVECPPCPAPPVAGPSVFLFPPKPKDQLMISRTPEVTCVVVDVSHEDPEVKFNWYVDGVEVHNAKTKPREEQYNSTYRVVSVLTVLHQDWLNGKEYKCKVSNKGLPSSIEKTISKAKGQPREPQVYTLPPSREEMTKNQVSLTCLVKGFYPSDIAVEWESNGQPENNYKTTPPVLDSDGSFFLYSKLTVDKSRWQQGNVFSCSVMHEGLHNHYTQKSLSLSPGK
notes: IGFBP3 with IGFBP3 linker deletion 3, fused to Fc; dimeric; also called 3(del3)3; 3(del3)3Fc
B8: IGFBP3-GS16-VEGF-Fc (Fc fusion)
chain: GASSAGLGPVVRCEPCDARALAQCAPPPAVCAELVREPGCGCCLTCALSEGQPCGIYTERCGSGLRCQPSPDEARPLQALLDGRGLCVNASAVSKGHAKDSQRYKVDYESQSTDTQNFSSESKRETEYGPCRREMEDTLNHLKFLNVLSPRGVHIPNCDKKGFYKKKQCRPSKGRKRGFCWCVDKYGQPLPGYTTKGKEDVHCYSMQSKGGGGSGGGGSGGGGSGIYIFISDTGRPFVEMYSEIPEIIHMTEGRELVIPCRVTSPNITVTLKKFPLDTLIPDGKRIIWDSRKGFIISNATYKEIGLLTCEATVNGHLYKTNYLTHRQGYRIYDVVLSPSHGIELSVGEKLVLNCTARTELNVGIDFNWEYPSSKHQHKKLVNRDLKTQSGSEMKKFLSTLTIDGVTRSDQGLYTCAASSGLMTKKNSTFVRVHEKVECPPCPAPPVAGPSVFLFPPKPKDQLMISRTPEVTCVVVDVSHEDPEVKFNWYVDGVEVHNAKTKPREEQYNSTYRVVSVLTVLHQDWLNGKEYKCKVSNKGLPSSIEKTISKAKGQPREPQVYTLPPSREEMTKNQVSLTCLVKGFYPSDIAVEWESNGQPENNYKTTPPVLDSDGSFFLYSKLTVDKSRWQQGNVFSCSVMHEGLHNHYTQKSLSLSPGK
notes: IGFBP3 with linker deletion 1 - GS 16 linker - v1v2 - Fc; dimeric; also called Chimera B; 3-t3-3-GS16-V1V2

Assays:
wild-type IGFBP3 = molecular target: T1, wild-type IGFBP3 (human, UniProt P17936 28-291); test: summary of the foregoing examples; method not given
T1 construct: also called human IGFBP3

IGF-1 [1] = molecular target: T2, IGF-1 (UniProt P05019 49-118); test: biotinylated IGF-1 ELISA on Fc-captured chimera, after overnight in PBS at 37 C, against the 4 C PBS control; experiment 4-81
T2 construct: Biotinylated IGF-1 is written as the same molecule; also called biotinylated IGF-1; IGF-1-bio
Procedure: (§1) Plates were coated with goat anti-human Fc antibody, blocked and then incubated with chimera as in the Fc ELISA. Biotinylated IGF-1 (GroPep) or VEGF-Biotin (R&D Systems VEGF biotinylated with sulfo-NHS-LC-biotin as per instructions (Pierce) was added for 2 hours followed by streptavidin-HRP (Jackson Immunoresearch) for 30 minutes. Chromogenic development with tetramethyl benzidine was performed as described above.
(§2) To test the stability of the present chimeras, some purified chimeras (see, Table 4) were incubated with PBS or a conditioned medium from the MCF-7 cell line overnight at 37° C. and PBS overnight at 4° C. The IGF-1 binding and VEGF binding were measured using the biotinylated IGF-1 and VEGF.

IGF-1 [2] = molecular target: T2, IGF-1; test: biotinylated IGF-1 ELISA on Fc-captured chimera, 4 C PBS control (the reference); experiment 4-81
Procedure: as §1, §2

IGF-1 [3] = molecular target: T2, IGF-1; test: Biacore SPR; experiment 4-79
Procedure: (§3) Biacore binding was performed at David Myszka's laboratory at the University of Utah or at the Genomic Research Center at Academia Sinica. Surfaces of binding protein chimera were made via chemical immobilization on a CM4 chip using standard amine coupling chemistry. […] Excess surface carboxyl activated sites on all four flow cells was blocked using the doubly positively charged species ethylenediamine. Binding experiments (but not immobilizations) in HBS-P (10 mM HEPES pH 7.4, 150 mM NaCl, 0.05% P20), The HBS-P was supplemented with BSA at 0.2 mg/mL, or HBS-P was supplemented with 500 mM NaCl (650 mM NaCl, final concentration). Analytes were also reconstituted in the corresponding buffer. All experiments were performed at 25° C. 1/150 dilutions of phosphoric acid were used to regenerate IGFBP3-Fc surfaces and a sequence of 3 M MgCl₂ followed by 5 M GuCl was used to regenerate surfaces immobilized with growth factor. Dissociation constants reported below used immobilized binding protein unless noted. Differences between binding constants may be expected between growth factor immobilization and chimera immobilization.

IGF-1 [4] = molecular target: T2, IGF-1; test: biotinylated IGF-1 ELISA on Fc-captured chimera, after overnight in MCF-7 conditioned medium at 37 C, against the 4 C PBS control; experiment 4-81
Procedure: as §1, §2

bFGF [5] = molecular target: T3, bFGF (UniProt P09038 143-288, limits assumed); test: Biacore SPR, immobilised bFGF; experiment 4-79
T3 construct: also called basic fibroblast growth factor
Procedure: as §3

bFGF [6] = molecular target: T3, bFGF; test: binding test, fragment as ligand, growth factor in 0.65 M NaCl
VEGF-B = molecular target: B1; test: as above
PDGF AB = molecular target: T4, PDGF AB (UniProt P04085 87-211; P01127 82-190, limits assumed); test: as above
T4 construct: Heterodimer by its name

nrgbx [7] = molecular target: T5, nrgbx (UniProt Q02297-6 2-246, limits assumed); test: as above
T5 construct: also called neuregulin
T5 sequence (looked up): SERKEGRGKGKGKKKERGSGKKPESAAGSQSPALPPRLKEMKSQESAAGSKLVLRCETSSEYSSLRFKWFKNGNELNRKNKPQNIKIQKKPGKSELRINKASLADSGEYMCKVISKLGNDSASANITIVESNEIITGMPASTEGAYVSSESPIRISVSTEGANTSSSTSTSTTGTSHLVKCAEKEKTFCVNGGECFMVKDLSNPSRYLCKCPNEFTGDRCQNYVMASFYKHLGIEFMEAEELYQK

IGF-1 [8] = molecular target: T2, IGF-1; test: as above
IGF-2 = IGF-2 (UniProt P01344 25-91); test: as above
IGF-1 [9] = molecular target: T2, IGF-1; test: cell-based or functional assay
nrgbx [10] = molecular target: T5, nrgbx; test: cell-based or functional assay
IGF-1 [11] = molecular target: T2, IGF-1; test: biotinylated IGF-1 ELISA on Fc-captured chimera, 4 C PBS control (the reference); experiment 3-192
Procedure: as §1, §2

IGF-1 [12] = molecular target: T2, IGF-1; test: biotinylated IGF-1 ELISA on Fc-captured chimera, after overnight in PBS at 37 C, against the 4 C PBS control; experiment 3-192
Procedure: as §1, §2

IGF-1 [13] = molecular target: T2, IGF-1; test: biotinylated IGF-1 ELISA on Fc-captured chimera, after overnight in MCF-7 conditioned medium at 37 C, against the 4 C PBS control; experiment 3-192
Procedure: as §1, §2

T3 sequence (P09038 143-288 limits assumed): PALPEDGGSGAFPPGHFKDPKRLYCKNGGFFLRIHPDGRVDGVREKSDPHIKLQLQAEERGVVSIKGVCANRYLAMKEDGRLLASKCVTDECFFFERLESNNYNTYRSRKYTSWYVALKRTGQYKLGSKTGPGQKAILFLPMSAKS
T4 sequence (P01127 82-190 limits assumed, chain 2 of 2, other chains not shown): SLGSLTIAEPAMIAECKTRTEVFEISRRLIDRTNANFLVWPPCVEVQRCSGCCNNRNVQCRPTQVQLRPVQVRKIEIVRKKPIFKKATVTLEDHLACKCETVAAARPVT
T2 sequence (P05019 49-118 limits assumed): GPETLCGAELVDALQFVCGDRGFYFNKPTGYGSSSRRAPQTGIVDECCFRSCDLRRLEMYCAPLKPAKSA
Chain of IGF-2 (P01344 25-91 limits assumed): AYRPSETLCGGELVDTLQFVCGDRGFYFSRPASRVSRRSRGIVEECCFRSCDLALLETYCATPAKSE

B1: binds (wild-type IGFBP3).

B2 was tested, and the “IGF-1 binding remaining over controls” value (IGF-1 [1]) was 72%, the “IGF-1 binding remaining over controls” value (IGF-1 [2]) was 100% and the Kd (IGF-1 [3]) was 0.32 nM. For the same binder, the “IGF-1 binding remaining over controls” value (IGF-1 [4]) was 43% and the Kd (bFGF [5]) was 4.32 nM.

B3: binds (wild-type IGFBP3).

B4: no binding (bFGF [6]); no binding (VEGF-B); no binding (PDGF AB). B4: no binding (nrgbx [7]).

B5: no binding (bFGF [6]); binds (IGF-1 [8]); no binding (VEGF-B). B5: no binding (PDGF AB); binds (IGF-2); no binding (nrgbx [7]).

B6: binds (bFGF [6]); binds (IGF-1 [8]); binds (VEGF-B). B6: binds (PDGF AB); binds (IGF-2).

B7 was tested, and the “EC50 in inhibiting IGF-1 induced proliferation of hep3B cells” value (IGF-1 [9]) was 21 nM, the “IC50 in inhibiting neuregulin-induced proliferation” value (nrgbx [10]) was 80 nM and the “IGF-1 binding remaining over controls” value (IGF-1 [1]) was 84%. The “IGF-1 binding remaining over controls” value (IGF-1 [2]) was 100%, the Kd (IGF-1 [3]) was 0.371 nM and the “IGF-1 binding remaining over controls” value (IGF-1 [4]) was 49%. For the same binder, the Kd (bFGF [5]) was 3.44 nM.

In the case of B8, the “IGF-1 binding remaining over controls” value (IGF-1 [11]) is reported as 100%, the “IGF-1 binding remaining over controls” value (IGF-1 [12]) is reported as 167% and the “IGF-1 binding remaining over controls” value (IGF-1 [13]) is reported as 82%.
